Values of other authors in patent US6964771B1, “Method for stably incorporating substances within dry, foamed glass matrices” (Elan Drug Delivery Limited, priority 1995, dated 2005).

Settings: as delivered, dosage of 300 μg

B1: Neupogen®: biopharmaceutical delivered at a dosage of 300 μg (protein, chains of the INN, looked up)
chain: MTPLGPASSLPQSFLLKCLEQVRKIQGDGAALQEKLCATYKLCHPEELVLLGHSLGIPWAPLSSCPSQALQLAGCLSQLHSGLFLYQGLLQALEGISPELGPTLDTLQLDVADFATTIWQQMEELGMAPALQPTQGAMPAFASAFQRRAGGVLVASHLQSFLEVSYRVLRHLAQP
specific activity: 1±0.6×10^8 U/mg
